Test results: patent US5763573A, “GTPase activating protein fragments” (Chiron Corporation, priority 1995, dated 1998)

Key:
[1] = target: H-ras protein (Homo sapiens, UniProt P01112); assay: Typical GAP assay with immunoprecipitated H-ras bound to α-32P-GTP, TLC; assay type: biochemical; settings: sufficient GAP; 60 minutes at room temperature
Excerpt: A typical GAP assay can be carried out as follows. Approximately 0.8 micrograms of H-ras protein obtained as described by Trahey, et al., supra was bound to α-32P-GTP followed by precipitation of the complex with 13 micrograms of an anti-ras antibody, 157-181, that recognizes the carboxyl terminal end of the molecule. Specifically, 157-181 recognizes the carboxyl terminal residues at positions 157-181. Adari et al., 1988 Science, […]:518. Next, 10 micrograms of sheep-anti-mouse IgG, and 10 microliters of protein A-Sepharose beads were added. As a control, the same reactants were combined except that rat IgG replaced 157-181, and goat anti-rat IgG replaced sheep anti-mouse IgG. The pellets were washed with 20 mM tris hydrochloride, pH 7.4, containing 20 mM sodium chloride, 1 mM magnesium chloride and 1 mM DTT and resuspended in the same solution. Four microliter aliquots of the immune complex were then mixed with 10 microliters of GAP, or, as a control, buffer without GAP. After 60 minutes incubation at room temperature the Sepharose beads were washed again, and the bound nucleotides analyzed using thin layer chromatography with 1M LiCl as the solvent. […] The assay detects GAP in a semi-quantitative, dose-dependent fashion. Quantitation can be improved by scraping the relevant regions of the plate and measuring cpm in GDP by use of a gamma counter.

[2] = tested on: ras p21 protein; assay: Filter assay of ras p21 hydrolysis of 32-P gamma-GTP with and without GAP; assay type: biochemical; settings: FIG. 13; presence and absence of GAP; 30 minutes at room temperature
Procedure: The above four peptides, in the following two experiments, were tested for their abilities to inhibit the hydrolysis of GTP by ras p21 protein, in the presence and absence of GAP. The first experiment involved peptides G65, G73 and 891. It was carried out as follows: purified wild type ras p21 protein was incubated with 0.25 μM 32-P gamma-GTP in 100 mM NaPO4, pH 6.8, 0.5 mM DTT, 0.5 mM EDTA, 0.005% Na cholate, and 0.5 mg/ml BSA for 15 minutes at 30° C. The mixture was then diluted ten fold with TNM buffer (comprising 20 mM Tris-HCl, pH 7.0, 100 mM NaCl, 5 mM MgCl2). 20 μl (0.05 μg of p21) of this mixture was then combined with 2 μl of the peptide in 25 mM NaOAc, pH 5.5 and incubated for 5 minutes at room temperature. The GAP assay was initiated by the addition of 12 ng GAP in 5 μl TNM buffer with 1 mg/ml BSA or 5 μl TNM BSA buffer for the GAP independent reactions, and the resulting mixture was incubated for 30 minutes at room temperature. The samples were then filtered through nitrocellulose membranes and washed three times with cold TNM. The filters were dried and their radioactivity counted. […] In the presence of GAP, the radioactive ras p21-GTP complex is hydrolyzed to GDP and ras p21 protein, thus reducing the resulting amount of radioactive p21-GTP bound to the filter and consequently, the radioactive counts detected. […]

H-ras protein, sequence (P01112 whole entry): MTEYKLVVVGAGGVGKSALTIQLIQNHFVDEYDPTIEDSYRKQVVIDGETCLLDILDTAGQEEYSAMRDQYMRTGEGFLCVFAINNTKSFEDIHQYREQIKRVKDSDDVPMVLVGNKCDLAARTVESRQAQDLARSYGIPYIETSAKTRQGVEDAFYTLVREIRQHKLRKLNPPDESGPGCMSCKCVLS

GAP: guanine triphosphatase activating protein purified from human placenta, about 115,000-120,000 daltons
hydrolysis of GTP to GDP [1]: near complete hydrolysis

peptide G73: peptide corresponding to amino acids positions 975-990 of the full length GAP (GNVPELPDTTEHSRTD; UniProt P20936 975-990, looked up, fragment)
effect on hydrolysis of GTP (radioactive counts of ras p21-GTP complex on filter) [2]: do not affect
